The values below come from patent US6987089.

The data set addresses T1, His-CIA recombinant protein (His6-tagged mouse CIA).
T1 chain: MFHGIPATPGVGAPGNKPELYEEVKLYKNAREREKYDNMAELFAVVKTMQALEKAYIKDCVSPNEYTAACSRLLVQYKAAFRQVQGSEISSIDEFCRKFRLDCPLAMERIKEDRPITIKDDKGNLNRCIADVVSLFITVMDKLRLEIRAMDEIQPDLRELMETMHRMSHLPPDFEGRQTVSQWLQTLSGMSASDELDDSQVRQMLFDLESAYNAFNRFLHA

B1: ASK1-Flag (expressed from pcDNA3-ASK1-Flag in 293 cells, immunoprecipitated with anti-Flag) (protein)
chain: MSTEADEGITFSVPPFAPSGFCTIPEGGICRRGGAAAVGEGEEHQLPPPPPGSFWNVESAAAPGIGCPAATSSSSATRGRGSSVGGGSRRTTVAYVINEASQGQLVVAESEALQSLREACETVGATLETLHFGKLDFGETTVLDRFYNADIAVVEMSDAFRQPSLFYHLGVRESFSMANNIILYCDTNSDSLQSLKEIICQKNTMCTGNYTFVPYMITPHNKVYCCDSSFMKGLTELMQPNFELLLGPICLPLVDRFIQLLKVAQASSSQYFRESILNDIRKARNLYTGKELAAELARIRQRVDNIEVLTADIVINLLLSYRDIQDYDSIVKLVETLEKLPTFDLASHHHVKFHYAFALNRRNLPGDRAKALDIMIPMVQSEGQVASDMYCLVGRIYKDMFLDSNFTDTESRDHGASWFKKAFESEPTLQSGINYAVLLLAAGHQFESSFELRKVGVKLSSLLGKKGNLEKLQSYWEVGFFLGASVLANDHMRVIQASEKLFKLKTPAWYLKSIVETILIYKHFVKLTTEQPVAKQELVDFWMDFLVEATKTDVTVVRFPVLILEPTKIYQPSYLSINNEVEEKTISIWHVLPDDKKGIHEWNFSASSVRGVSISKFEERCCFLYVLHNSDDFQIYFCTELHCKKFFEMVNTITEEKGRSTEEGDCESDLLEYDYEYDENGDRVVLGKGTYGIVYAGRDLSNQVRIAIKEIPERDSRYSQPLHEEIALHKHLKHKNIVQYLGSFSENGFIKIFMEQVPGGSLSALLRSKWGPLKDNEQTIGFYTKQILEGLKYLHDNQIVHRDIKGDNVLINTYSGVLKISDFGTSKRLAGINPCTETFTGTLQYMAPEIIDKGPRGYGKAADIWSLGCTIIEMATGKPPFYELGEPQAAMFKVGMFKVHPEIPESMSAEAKAFILKCFEPDPDKRACANDLLVDEFLKVSSKKKKTQPKLSALSAGSNEYLRSISLPVPVLVEDTSSSSEYGSVSPDTELKVDPFSFKTRAKSCGERDVKGIRTLFLGIPDENFEDHSAPPSPEEKDSGFFMLRKDSERRATLHRILTEDQDKIVRNLMESLAQGAEEPKLKWEHITTLIASLREFVRSTDRKIIATTLSKLKLELDFDSHGISQVQVVLFGFQDAVNKVLRNHNIKPHWMFALDSIIRKAVQTAITILVPELRPHFSLASESDTADQEDLDVEDDHEEQPSNQTVRRPQAVIEDAVATSGVSTLSSTVSHDSQSAHRSLNVQLGRMKIETNRLLEELVRKEKELQALLHRAIEEKDQEIKHLKLKSQPIEIPELPVFHLNSSGTNTEDSELTDWLRVNGADEDTISRFLAEDYTLLDVLYYVTRDDLKCLRLRGGMLCTLWKAIIDFRNKQT
For the protein B1, the “phosphorylation of GST-MKK6 (K82A) by immunoprecipitated ASK1 (immunocomplex kinase assay)” value is given as “The presence of the HIS-CIA recombinant protein, however, lowered the kinase activity of ASK1, which had been activated by the UV irradiation, resulting in a significant decrease in the phosphorylation of GST-MKK6”.
